Drawing on patent US20250154250A1, “CEACAM5 ADC-ANTI-PD1/PD-L1 COMBINATION THERAPY” (SANOFI, priority 2021, published 2025), this text covers EC50 for one molecule.

For this assay, the target named is T1, recombinant human CEACAM5 (Homo sapiens, UniProt P06731).
T1 sequence (P06731 35-676): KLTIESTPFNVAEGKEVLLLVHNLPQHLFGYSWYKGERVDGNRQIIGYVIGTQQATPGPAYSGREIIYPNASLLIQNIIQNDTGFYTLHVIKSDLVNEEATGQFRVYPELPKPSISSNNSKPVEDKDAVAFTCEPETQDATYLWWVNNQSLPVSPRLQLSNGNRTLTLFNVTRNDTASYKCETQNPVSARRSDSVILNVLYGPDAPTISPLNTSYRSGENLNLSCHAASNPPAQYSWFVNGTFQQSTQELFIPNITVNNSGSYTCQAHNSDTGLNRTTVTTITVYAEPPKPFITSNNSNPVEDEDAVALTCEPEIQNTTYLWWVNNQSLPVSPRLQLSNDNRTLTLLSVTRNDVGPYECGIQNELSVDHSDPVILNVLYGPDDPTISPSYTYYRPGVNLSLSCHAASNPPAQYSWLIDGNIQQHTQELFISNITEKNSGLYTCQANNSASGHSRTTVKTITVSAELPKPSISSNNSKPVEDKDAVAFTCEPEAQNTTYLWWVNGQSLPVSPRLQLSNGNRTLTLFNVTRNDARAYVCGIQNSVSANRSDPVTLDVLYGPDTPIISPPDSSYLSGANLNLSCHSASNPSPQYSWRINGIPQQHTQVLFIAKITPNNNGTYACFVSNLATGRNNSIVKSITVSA
The assay can be described thus: ELISA binding to recombinant human CEACAM5. The conditions noted are these: read-out: affinity (ELISA). From the text:
“Affinity” is defined, in theory, by the equilibrium association between the whole antibody and the antigen. It can be experimentally assessed by a variety of known methods, such as measuring association and dissociation rates with surface plasmon resonance or measuring the EC50 (or apparent KD) in an immunochemical assay (ELISA, FACS). In these assays, the EC50 is the concentration of the antibody which induces a response halfway between the baseline and maximum after some specified exposure time on a defined concentration of antigen by ELISA (enzyme-linked immuno-sorbent assay) or cell expressing the antigen by FACS (Fluorescence Activated Cell Sorting).
Affinity for human CEACAM5 or for Macaca fascicularis CEACAM5 may be determined as the EC50 value in an ELISA using soluble recombinant CEACAM5 as capture antigen.
On the technique in general: In an ELISA, binding on a coated surface is turned into a signal by an enzyme label.

B1: naked antibody: humanized anti-CEACAM5 antibody (tusamitamab), CAS Registry No. 2349294-95-5; VH SEQ ID NO: 6, VL SEQ ID NO: 7 (antibody, V domains shown)
VH: EVQLQESGPGLVKPGGSLSLSCAASGFVFSSYDMSWVRQTPERGLEWVAYISSGGGITYAPSTVKGRFTVSRDNAKNTLYLQMNSLTSEDTAVYYCAAHYFGSSGPFAYVVGQGTLVTVSS
VL: DIQMTQSPASLSASVGDRVTITCRASENIFSYLAWYQQKPGKSPKLLVYNTRTLAEGVPSRFSGSGSGTDFSLTISSLQPEDFATYYCQHHYGTPFTFGSGTKLEI
With B1, the EC50 was about 20 pM.
